Patent US20230212319A1, “NOVEL ANTIGEN BINDING DOMAINS AND SYNTHETIC ANTIGEN RECEPTORS INCORPORATING THE SAME” (University of Southern California, priority 2020, published 2023)

B1: 22011 (protein)
chain: MALPVTALLLPLALLLHAARPQLQLQESGPGLVKPSETLSLTCTVSGDSISSGDYYWGWIRQPPGKGLEWIGHIYYSGVTYYNPSLKSRVTISVDTSRNQFSLKLSSVTAADTAVYYCTREDSSNWRSRGQGTLVTVSSLEDLKNVFPPEVAVFEPSEAEISHTQKATLVCLATGFYPDHVELSWWVNGKEVHSGVCTDPQPLKEQPALNDSRYCLSSRLRVSATFWQNPRNHFRCQVQFYGLSENDEWTQDRAKPVTQIVSAEAWGRADCGFTSESYQQGVLSATILYEILLGKATLYAVLVSALVLMAMVKRKDSRGRAKRSGSGATNFSLLKQAGDVEENPGPTSMDWIWRILFLVGAATGAHSFEQLQLQESGPGLVKPSETLSLTCTVSGGSISSGDYYWGWIRQPPGKGLEWIGHIYYSGATYYNPSLKSRVTISVDTSRNQFSLKLSSVTAADTAVYYCTRDDSSNWRSRGQGTLVTVSSTRIQNPDPAVYQLRDSKSSDKSVCLFTDFDSQTNVSQSKDSDVYITDKCVLDMRSMDFKSNSAVAWSNKSDFACANAFNNSIIPEDTFFPSPESSCDVKLVEKSFETDTNLNFQNLSVIGFRILLLKVAGFNLLMTLRLWSSRAKRSGSGVKQTLNFDLLKLAGDVESNPGPSRGHMTEYKPTVRLATRDDVPRAVRTLAAAFADYPATRHTVDPDRHIERVTELQELFLTRVGLDIGKVWVADDGAAVAVWTTPESVEAGAVFAEIGPRMAELSGSRLAAQQQMEGLLAPHRPKEPAWFLATVGVSPDHQGKGLGSAVVLPGVEAAERAGVPAFLETSAPRNLPFYERLGFTVTADVEVPEGPRTWCMTRKPGA
B2: 22031 (protein)
chain: MALPVTALLLPLALLLHAARPQLQLQESGPGLVKPSETLSLTCTVSGDSISSGDYYWGWIRQPPGKGLEWIGHIYYSGVTYYNPSLKSRVTISVDTSRNQFSLKLSSVTAADTAVYYCTREDSSNWRSRGQGTLVTVSSLEGSPIKTDVITMDPKDNCSKDANDTLLLQLTNTSAYYMYLLLLLKSVVYFAIITCCLLRRTAFCCNGEKSRAKRSGSGATNFSLLKQAGDVEENPGPTSMDWIWRILFLVGAATGAHSFEVQLVESGGGVVQPGRSLRLSCAASGFSFSGYGMHWVRQAPGKGLEWVAYISYDGSNKYYADSVKGRFTISRDNSKNTLYLQMNSLRAEDTAVYYCAKDPAWGLRLGESSSYDFDIWGQGTMVTVSSTRIQNPDPAVYQLRDSKSSDKSVCLFTDFDSQTNVSQSKDSDVYITDKCVLDMRSMDFKSNSAVAWSNKSDFACANAFNNSIIPEDTFFPSPESSCDVKLVEKSFETDTNLNFQNLSVIGFRILLLKVAGFNLLMTLRLWSSRAKRSGSGVKQTLNFDLLKLAGDVESNPGPSRGHMTEYKPTVRLATRDDVPRAVRTLAAAFADYPATRHTVDPDRHIERVTELQELFLTRVGLDIGKVWVADDGAAVAVWTTPESVEAGAVFAEIGPRMAELSGSRLAAQQQMEGLLAPHRPKEPAWFLATVGVSPDHQGKGLGSAVVLPGVEAAERAGVPAFLETSAPRNLPFYERLGFTVTADVEVPEGPRTWCMTRKPGA

Tested on: RAJI cells
Experiment: JNG assay, co-culture with RAJI cells
Format: cell-based
Conditions: JNG cells expressing construct, co-culture with Raji
Summary of the method: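 Jurkat-NFAT-GFP (JNG) cells stably expressing SAR constructs via lentiviral transduction and puromycin/blasticidin selection were cocultured with target cells at E:T ~1:2 for ~4–18 h. NFAT-driven GFP was measured by FACS versus parental JNG cells; scores +/- to 5+ denote ~5–50% GFP-positive cells.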

Molecule | NFAT-GFP ASSAY: Raji
B1 | +/- (refer to approximately 5%, 10%, 20%, 30%, 40% and 50% GFP positive cells)
B2 | +/- (refer to approximately 5%, 10%, 20%, 30%, 40% and 50% GFP positive cells)
